Consider one sequence from patent publication US20170100354A1.

This assay addresses H4 tail (residues 1-30) of the acetyl reporter protein (H4ac indicator). The assay is described as follows: cell-based or functional assay.

As for “TATA binding protein (TBP)-associated factor II (TAFII) bromodomain of the H4ac indicator”, the % of cells discriminated from auto fluorescence (FACS), H4ac indicator, 1 µM SAHA was found to be 5%; the % of cells discriminated from auto fluorescence (FACS), H4ac indicator, 2.5 µM SAHA was 20%; the % of cells discriminated from auto fluorescence (FACS), H4ac indicator, 7.5 µM SAHA came to 40%; the % of cells discriminated from auto fluorescence (FACS), H4ac indicator, 10 µM SAHA is 45%.
